Assay results: the supplement of paper PMC10567573

B1: IKZF1 (parent)
chain: YHSQDRYEFSSHITRGEHRFHMS

Variants of: B1
Experiment: protein stability index of a GFP-peptide fusion (GPS, HEK-293T) (PSI 1-6); higher = more stable
Conditions: c terminus: native
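Also: lentivirally expressed fusions sorted by FACS into six bins by GFP to DsRed ratio, PSI derived from sequencing read proportions per bin multiplied by bin number.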

Protein stability index, by site and new letter:
R15: K 1.8 | T 2.9 | V 1.82 | F 2.34
T14: D 1.83 | K 1.49 | P 1.52 | F 1.47 | I 2.15 | N 2.24 | L 2.23 | M 1.84 | Y 1.37
S10: Y 2 | T 1.62 | Q 2.08 | I 1.92 | A 1.4 | K 1.27 | D 1.74 | L 1.66 | C 1.56
H21: L 2.13 | C 1.69 | Y 1.76 | F 1.98 | E 1.44 | D 2.15 | V 2.25 | G 2.11
E17: H 1.99 | S 1.64 | N 2.92 | F 1.62 | T 1.4 | I 2.84 | R 1.94 | W 2.07
D5: R 1.61 | F 2.55 | C 3.34 | K 3.72 | A 1.5 | S 1.79 | I 2.41 | V 2.31
F20: P 1.59 | H 1.93 | D 1.76 | G 1.67 | C 2.12 | L 2.37 | R 2.36 | Y 1.75 | V 1.39
E8: I 2.78 | A 2.79 | K 3.34 | N 3.99 | W 2.44 | Y 3.85
F9: Q 1.17 | T 1.49 | I 2.03 | A 2.02 | G 1.97 | Y 1.95 | S 3.12
Y7: D 2.26 | P 1.78 | R 2.08 | N 1.72 | W 2.46 | K 1.51 | S 2.2
R19: L 2.54 | P 1.77 | G 1.89 | D 1.93 | A 2.47 | W 2.84 | Y 2.16 | H 1.3
S11: A 2.36 | G 2 | E 2.15 | Y 1.67 | V 1.6 | T 2.02 | M 1.48 | N 1.92 | I 1.65
Y1: S 4.05 | H 3.76 | G 3.97 | R 4.05 | L 3.37 | M 3.5 | W 2.94
M22: N 2.06 | F 1.53 | K 1.46 | T 2.06 | R 1.99 | H 1.66
S23: K 2.28 | M 1.62 | T 2.02 | I 2.18 | Y 2.42 | N 2.08 | F 2.01 | C 1.94
S3: V 2.15 | F 1.76 | R 2.47 | N 1.61 | Y 1.63
G16: E 3.6 | F 1.9 | K 2.27 | Q 1.58 | T 2.4 | M 2.85 | P 2.01 | H 1.56
H12: M 2.74 | W 2.85 | Y 1.98 | C 2.66 | T 2.15
R6: T 1.8 | P 2.23 | G 2.22 | W 2.83 | Q 1.9 | H 1.8
H2: F 2.51 | S 3.36 | D 3.76 | E 3.98 | A 2.5 | Y 2.85 | C 2.04 | N 3.72 | V 2.58
Q4: I 1.57 | D 2.75 | C 1.44 | R 1.94 | M 1.77 | Y 1.77 | H 2.21 | V 2.23
H18: A 1.45 | D 1.12 | R 1.82 | V 1.68 | M 2.75 | L 1.99
I13: M 2.04 | C 2.08 | Q 1.62 | T 1.97 | G 2.7 | A 1.85 | H 2.36
